Measured values reported in patent US20240409650A1 (ARMAGEN, published 2024).

Key:
[1] = molecular target: T1, HIR extracellular domain (ECD) (human, UniProt P06213 28-956, limits assumed); assay: ELISA on plated HIR ECD; ED50 normalised with a MW of 375 kDa
T1 construct: extracellular domain; also called HIR ECD; IR ECD

[2] = molecular target: T1, HIR extracellular domain (ECD); assay: ELISA, HIR ECD plated on Nunc-Maxisorb wells, biotinylated goat anti-human IgG detection; ED50 by inspection
[3] = molecular target: T1, HIR extracellular domain (ECD); assay: ELISA on HIR ECD (FIG. 17); the same 166 ng/mL ED50 normalised with a MW of 375 kDa
[4] = molecular target: T1, HIR extracellular domain (ECD); assay: ELISA on lectin affinity purified HIR ECD; printed as ED50, non-linear regression
[5] = molecular target: T1, HIR extracellular domain (ECD); assay: ELISA on HIR ECD; ED50 normalised with a MW of 350 kDa
[6] = molecular target: T1, HIR extracellular domain (ECD); assay: ELISA on HIR ECD; ED50 normalised with a MW of 150 kDa
[7] = molecular target: T1, HIR extracellular domain (ECD); assay: ELISA on plated HIR ECD; ED50 normalised with a MW of 150 kDa

EC50 [1] [nM]	EC50 [2] [µg/mL]	EC50 [3] [nM]	EC50 [4] [µg/mL]	EC50 [5] [nM]	EC50 [6] [nM]	EC50 [7] [nM]	Binder
0.93	0.35	–	–	–	–	–	HIRMAb-L-NAGLU fusion protein (23 amino acid L linker) (antibody, human IgG1, human IgG3, kappa, COS-derived (transient expression), purified on protein A. Hetero-tetramer; also called HIR Ab-L-NAGLU fusion protein; IgG-L-NAGLU) heavy: not shown light: DIQMTQSPSSLSASLGERVSLTCRASQDIGGNLYWLQQGPDGTIKRLIYATSSLDSGVPKRFSGSRSGSDYSLTISSLESEDFVDYYCLQYSSSPWTFGGGTKLEIKRTVAAPSVFIFPPSDEQLKSGTASVVCLLNNFYPREAKVQWKVDNALQSGNSQESVTEQDSKDSTYSLSSTLTLSKADYEKHKVYACEVTHQGLSSPVTKSFNRGEC
–	–	0.44	0.166	0.47	–	–	HIRMAb-LL-NAGLU fusion protein (31 amino acid LL linker) (antibody, human IgG1, human IgG3, kappa, also called HIR Ab HC-LL-NAGLU; printed in places as HIRMAb-NAGLU or HIR Ab-NAGLU fusion protein) heavy: not shown light: DIQMTQSPSSLSASLGERVSLTCRASQDIGGNLYWLQQGPDGTIKRLIYATSSLDSGVPKRFSGSRSGSDYSLTISSLESEDFVDYYCLQYSSSPWTFGGGTKLEIKRTVAAPSVFIFPPSDEQLKSGTASVVCLLNNFYPREAKVQWKVDNALQSGNSQESVTEQDSKDSTYSLSSTLTLSKADYEKHKVYACEVTHQGLSSPVTKSFNRGEC
–	0.065	–	0.043	–	0.29	0.43	chimeric HIRMAb (chimeric monoclonal antibody against the human insulin receptor) (antibody, human IgG1, kappa, also called HIR Ab; HIRMAb alone) heavy: not shown light: DIQMTQSPSSLSASLGERVSLTCRASQDIGGNLYWLQQGPDGTIKRLIYATSSLDSGVPKRFSGSRSGSDYSLTISSLESEDFVDYYCLQYSSSPWTFGGGTKLEIKRTVAAPSVFIFPPSDEQLKSGTASVVCLLNNFYPREAKVQWKVDNALQSGNSQESVTEQDSKDSTYSLSSTLTLSKADYEKHKVYACEVTHQGLSSPVTKSFNRGEC
